{"source": "paper PMC13635753", "about": "“Mechanism of NanR transcriptional activation of sialic acid metabolism in Streptococcus pneumoniae” (Nucleic Acids Research, 2025)", "key": {"SpNanR [1]": {"target": "T1, SpNanR (Streptococcus pneumoniae, UniProt A0A0H2ZPE9 1-283)", "test": "MST; range over three sites; MST: 20 mM Tris-HCl pH 8.0, 300 mM NaCl, 0.05% Tween-20, 20 C, 20 nM FAM-DNA; AUC: 50 nM FAM-DNA, 0.019-5 uM SpNanR, buffer not in the material", "settings": "protein: recombinant; tags: none; chain copies: 2; label: 5'-FAM on sense strand"}, "SpNanR [2]": {"target": "T1, SpNanR", "test": "MST; protein up to 5000 nM; MST: 20 mM Tris-HCl pH 8.0, 300 mM NaCl, 0.05% Tween-20, 20 C, 20 nM FAM-DNA; AUC: 50 nM FAM-DNA, 0.019-5 uM SpNanR, buffer not in the material", "settings": "protein: recombinant; tags: none; chain copies: 2; label: 5'-FAM on sense strand"}, "SpNanR R67A": {"target": "SpNanR R67A (Streptococcus pneumoniae, UniProt A0A0H2ZPE9 1-283, R67A)", "test": "MST; protein up to 5000 nM; MST: 20 mM Tris-HCl pH 8.0, 300 mM NaCl, 0.05% Tween-20, 20 C, 20 nM FAM-DNA; AUC: 50 nM FAM-DNA, 0.019-5 uM SpNanR, buffer not in the material", "settings": "protein: recombinant; tags: none; chain copies: 2; label: 5'-FAM on sense strand"}, "SpNanR R56A": {"target": "SpNanR R56A (Streptococcus pneumoniae, UniProt A0A0H2ZPE9 1-283, R56A)", "test": "MST; protein up to 5000 nM; MST: 20 mM Tris-HCl pH 8.0, 300 mM NaCl, 0.05% Tween-20, 20 C, 20 nM FAM-DNA; AUC: 50 nM FAM-DNA, 0.019-5 uM SpNanR, buffer not in the material", "settings": "protein: recombinant; tags: none; chain copies: 2; label: 5'-FAM on sense strand"}, "SpNanR T18A": {"target": "SpNanR T18A (Streptococcus pneumoniae, UniProt A0A0H2ZPE9 1-283, T18A)", "test": "MST; protein up to 5000 nM; MST: 20 mM Tris-HCl pH 8.0, 300 mM NaCl, 0.05% Tween-20, 20 C, 20 nM FAM-DNA; AUC: 50 nM FAM-DNA, 0.019-5 uM SpNanR, buffer not in the material", "settings": "protein: recombinant; tags: none; chain copies: 2; label: 5'-FAM on sense strand"}, "SpNanR [3]": {"target": "T1, SpNanR", "test": "fluorescence-detection AUC (sedimentation velocity); no effector; Hill n 2.3; MST: 20 mM Tris-HCl pH 8.0, 300 mM NaCl, 0.05% Tween-20, 20 C, 20 nM FAM-DNA; AUC: 50 nM FAM-DNA, 0.019-5 uM SpNanR, buffer not in the material", "settings": "protein: recombinant; tags: none; chain copies: 2; label: 5'-FAM on sense strand"}, "[4]": {"target": "the molecule itself", "test": "AUC; sedimentation velocity, SpNanR 4.3–227.7 μM without N-acetylmannosamine-6-phosphate, 20 mM Tris–HCl pH 8.0, 300 mM NaCl, 20°C, 42 000 rpm; weight-averaged s fitted to a dimer–tetramer self-association model; constant of: tetramer to dimers"}, "[5]": {"target": "the molecule itself", "test": "AUC; sedimentation velocity, SpNanR 0.27–153.5 μM with 2 mM N-acetylmannosamine-6-phosphate, 20 mM Tris–HCl pH 8.0, 300 mM NaCl, 20°C, 42 000 rpm; constant of: tetramer to dimers"}, "[6]": {"target": "the molecule itself", "test": "SAXS with in-line size exclusion chromatography; SpNanR without N-acetylmannosamine-6-phosphate"}, "[7]": {"target": "the molecule itself", "test": "AUC; sedimentation velocity of SpNanR variants and wild type at 15 μM, without N-acetylmannosamine-6-phosphate"}, "[8]": {"target": "the molecule itself", "test": "AUC; sedimentation velocity of SpNanR variants and wild type at 15 μM, with N-acetylmannosamine-6-phosphate"}}, "note": "“And” between values parts separate entries of the source, which are not always exact repeats. Equal entries are not always repeated."}
{"binder": "cryptic site downstream of siaA operon (site 4) (dsDNA) DNA 1: TCTGAAACTACTTTCAGA DNA 2: TCTGAAAGTAGTTTCAGA", "values": [{"measurement": "Kd", "setting": "SpNanR [1]", "result": "~603", "unit": "nM"}]}
{"binder": "nanE G4T (dsDNA) DNA 1: TCTTAAAGTACTTTTAGA DNA 2: TCTAAAAGTACTTTAAGA", "values": [{"measurement": "binding result", "setting": "SpNanR [2]", "result": "no binding"}]}
{"binder": "nanE recognition sequence (site 2), FAM (dsDNA) DNA 1: TCTGAAAGTACTTTTAGA DNA 2: TCTAAAAGTACTTTCAGA", "values": [{"measurement": "binding result", "setting": "SpNanR R67A", "result": "no binding"}, {"measurement": "binding result", "setting": "SpNanR R56A", "result": "no binding"}, {"measurement": "binding result", "setting": "SpNanR T18A", "result": "no binding"}, {"measurement": "Kd", "setting": "SpNanR [1]", "result": "~603", "unit": "nM"}, {"measurement": "Kd", "setting": "SpNanR [3]", "result": "476 ± 75", "unit": "nM"}]}
{"binder": "nanA recognition sequence (site 1) (dsDNA) DNA 1: TCTGAAACTACTTTCAAA DNA 2: TTTGAAAGTAGTTTCAGA", "values": [{"measurement": "Kd", "setting": "SpNanR [1]", "result": "~603", "unit": "nM"}]}
{"binder": "nanE A10C (dsDNA) DNA 1: TCTGAAAGTCCTTTTAGA DNA 2: TCTAAAAGGACTTTCAGA", "values": [{"measurement": "binding result", "setting": "SpNanR [2]", "result": "no binding"}]}
{"binder": "Streptococcus pneumoniae NanR (SpNanR), wild type (natural protein, UniProt A0A0H2ZPE9 1-283, looked up, RpiR family transcriptional regulator NanR of Streptococcus pneumoniae, recombinant full length; intact mass 32 611 Da; Self-associates between dimer and tetramer; cloned into pET30ΔSE; no tag; also called SpNanR^WT; apo-SpNanR) MDKPDIATIIDSHFEEMTDLEQEIARYFLQAETITDDLSSQQVTQKLHISQAALTRFAKKCGFTGYREFIFQYQHQAENQANQVSKHSPLTKRVLRSYSNMREQTQDLIDEIQLERIAQLIEDAERIYFFGTGSSGLVAREMKLRFMRLGVVCEALTDQDGFAWTTSIMDENCLVLGFSLSGSTPSILDSLLDAKEMGAKTVLFTSVPNKNSQTYTETVLVATHSQPSYIQRISAQLPMLFFIDLIYAYFLEINRESKEKIFNSYWENKKLNGYRRQKRVRKS", "values": [{"measurement": "Kd", "setting": "[4]", "result": 97000, "unit": "nM"}, {"measurement": "Kd", "setting": "[5]", "result": "< 200", "unit": "nM"}, {"measurement": "stoichiometry N", "setting": "[6]", "result": "4 and 2"}]}
{"binder": "SpNanR^D160A (natural protein, NanR of Streptococcus pneumoniae with D160A; Variant of the full-length recombinant SpNanR; source: E. coli BL21(DE3), recombinant) MDKPDIATIIDSHFEEMTDLEQEIARYFLQAETITDDLSSQQVTQKLHISQAALTRFAKKCGFTGYREFIFQYQHQAENQANQVSKHSPLTKRVLRSYSNMREQTQDLIDEIQLERIAQLIEDAERIYFFGTGSSGLVAREMKLRFMRLGVVCEALTDQAGFAWTTSIMDENCLVLGFSLSGSTPSILDSLLDAKEMGAKTVLFTSVPNKNSQTYTETVLVATHSQPSYIQRISAQLPMLFFIDLIYAYFLEINRESKEKIFNSYWENKKLNGYRRQKRVRKS", "values": [{"measurement": "stoichiometry N", "setting": "[7]", "result": 2}, {"measurement": "stoichiometry N", "setting": "[8]", "result": 4}]}
{"binder": "SpNanR^R148A (natural protein, NanR of Streptococcus pneumoniae with R148A; Variant of the full-length recombinant SpNanR; source: E. coli BL21(DE3), recombinant) MDKPDIATIIDSHFEEMTDLEQEIARYFLQAETITDDLSSQQVTQKLHISQAALTRFAKKCGFTGYREFIFQYQHQAENQANQVSKHSPLTKRVLRSYSNMREQTQDLIDEIQLERIAQLIEDAERIYFFGTGSSGLVAREMKLRFMALGVVCEALTDQDGFAWTTSIMDENCLVLGFSLSGSTPSILDSLLDAKEMGAKTVLFTSVPNKNSQTYTETVLVATHSQPSYIQRISAQLPMLFFIDLIYAYFLEINRESKEKIFNSYWENKKLNGYRRQKRVRKS", "values": [{"measurement": "stoichiometry N", "setting": "[7]", "result": 2}]}
